This is an account of results in article PMC7413564, “Phase separation of Arabidopsis EMB1579 controls transcription, mRNA splicing, and development” (PLoS Biology, 2020).

For this experiment, the target named is T1, Oregon Green-labeled EMB1579 (Arabidopsis thaliana, UniProt F4IS91-1 1-1340, Oregon Green label (site not stated)).
T1 construct: full-length CDS amplified from seedling cDNA; phase-separated in F-buffer in the assay; also called Oregon Green-EMB1579; EMB1579 condensates; source: Sf9 insect cells (pFastBac1-EMB1579), purified (Ni-NTA, SuperDex 200 Increase), labelled with Oregon Green
T1 sequence (looked up): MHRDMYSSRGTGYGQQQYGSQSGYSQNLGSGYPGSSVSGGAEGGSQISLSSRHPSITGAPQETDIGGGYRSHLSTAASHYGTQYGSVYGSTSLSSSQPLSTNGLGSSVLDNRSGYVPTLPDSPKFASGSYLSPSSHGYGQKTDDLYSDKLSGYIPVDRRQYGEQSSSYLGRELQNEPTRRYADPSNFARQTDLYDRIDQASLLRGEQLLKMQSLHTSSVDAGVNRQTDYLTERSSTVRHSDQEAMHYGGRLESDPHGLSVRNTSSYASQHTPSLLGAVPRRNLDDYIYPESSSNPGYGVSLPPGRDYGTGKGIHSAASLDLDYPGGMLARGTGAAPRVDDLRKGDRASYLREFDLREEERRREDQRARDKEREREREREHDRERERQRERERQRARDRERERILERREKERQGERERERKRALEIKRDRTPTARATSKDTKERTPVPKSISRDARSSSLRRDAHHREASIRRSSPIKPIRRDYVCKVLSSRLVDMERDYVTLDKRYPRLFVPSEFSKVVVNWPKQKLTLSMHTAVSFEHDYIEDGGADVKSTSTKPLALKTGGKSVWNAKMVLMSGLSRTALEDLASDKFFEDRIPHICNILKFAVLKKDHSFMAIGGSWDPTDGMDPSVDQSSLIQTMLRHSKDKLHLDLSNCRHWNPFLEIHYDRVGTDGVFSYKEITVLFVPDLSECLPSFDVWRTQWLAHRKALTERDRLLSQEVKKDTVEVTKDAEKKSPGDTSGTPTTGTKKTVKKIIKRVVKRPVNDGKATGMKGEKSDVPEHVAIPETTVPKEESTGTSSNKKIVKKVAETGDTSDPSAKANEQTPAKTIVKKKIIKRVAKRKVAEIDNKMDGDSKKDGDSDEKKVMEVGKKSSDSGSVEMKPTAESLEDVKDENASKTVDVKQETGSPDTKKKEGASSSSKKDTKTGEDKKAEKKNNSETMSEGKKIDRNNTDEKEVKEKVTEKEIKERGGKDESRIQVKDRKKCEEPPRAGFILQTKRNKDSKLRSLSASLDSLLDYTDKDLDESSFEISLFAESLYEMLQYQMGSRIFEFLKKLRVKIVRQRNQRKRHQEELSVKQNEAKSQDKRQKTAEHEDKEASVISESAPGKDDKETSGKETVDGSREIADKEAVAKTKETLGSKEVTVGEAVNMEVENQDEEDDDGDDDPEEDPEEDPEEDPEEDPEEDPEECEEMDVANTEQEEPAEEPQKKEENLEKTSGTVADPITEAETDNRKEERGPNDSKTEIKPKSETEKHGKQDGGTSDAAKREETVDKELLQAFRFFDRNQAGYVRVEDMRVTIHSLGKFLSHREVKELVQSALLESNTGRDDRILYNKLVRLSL
In words: recruitment into condensates in vitro (confocal fluorescence microscopy); Oregon Green-labeled EMB1579 (2.5 μM) with mCherry-DDB1B (500 nM) or mCherry-MSI4 (20 nM) in F-buffer (25 mM Hepes pH 8.0, 100 mM KCl, 100 mg/ml PEG 3350), 5 minutes, room temperature. The following applies: both partners purified.

B1: mCherry-MSI4 (natural protein, Arabidopsis thaliana, UniProt O22607 1-507, looked up)
chain: MESDEAAAVSPQATTPSGGTGASGPKKRGRKPKTKEDSQTPSSQQQSDVKMKESGKKTQQSPSVDEKYSQWKGLVPILYDWLANHNLVWPSLSCRWGPQLEQATYKNRQRLYLSEQTDGSVPNTLVIANCEVVKPRVAAAEHISQFNEEARSPFVKKYKTIIHPGEVNRIRELPQNSKIVATHTDSPDVLIWDVETQPNRHAVLGAANSRPDLILTGHQDNAEFALAMCPTEPFVLSGGKDKSVVLWSIQDHITTIGTDSKSSGSIIKQTGEGTDKNESPTVGPRGVYHGHEDTVEDVAFSPTSAQEFCSVGDDSCLILWDARTGTNPVTKVEKAHDADLHCVDWNPHDDNLILTGSADNTVRLFDRRKLTANGVGSPIYKFEGHKAAVLCVQWSPDKSSVFGSSAEDGLLNIWDYDRVSKKSDRAAKSPAGLFFQHAGHRDKVVDFHWNASDPWTIVSVSDDCETTGGGGTLQIWRMSDLIYRPEEEVVAELEKFKSHVMTCASKP
notes: MSI4, Arabidopsis; amplified with MSI4-SalI-F/MSI4-XbaI-R2 from pEZS-NL-RFP-MSI4 and moved into pColdI-mCherry; also called recombinant MSI4 protein; source: E. coli BL21 (DE3) (pColdI-mCherry-MSI4), purified (Ni-NTA); not shown: mCherry, N-terminal, kept
On to B1, for which the binding result was “binds”.

B2: mCherry-DDB1B (natural protein, Arabidopsis thaliana, UniProt O49552 1-1088, looked up)
chain: MSVWNYAVTAQKPTCVTHSCVGNFTSPQELNLIVAKSTRIEIHLLSPQGLQTILDVPLYGRIATMELFRPHGEAQDFLFVATERYKFCVLQWDYESSELITRAMGDVSDRIGRPTDNGQIGIIDPDCRVIGLHLYDGLFKVIPFDNKGQLKEAFNIRLEELQVLDIKFLYGCTKPTIAVLYQDNKDARHVKTYEVSLKDKNFVEGPWSQNNLDNGADLLIPVPSPLCGVLIIGEETIVYCSANAFKAIPIRPSITKAYGRVDLDGSRYLLGDHAGLIHLLVITHEKEKVTGLKIELLGETSIASSISYLDNAVVFVGSSYGDSQLIKLNLQPDAKGSYVEILEKYVNLGPIVDFCVVDLERQGQGQVVTCSGAYKDGSLRIVRNGIGINEQASVELQGIKGMWSLKSSIDEAFDTFLVVSFISETRILAMNIEDELEETEIEGFLSEVQTLFCHDAVYNQLVQVTSNSVRLVSSTTRELRNKWDAPAGFSVNVATANASQVLLATGGGHLVYLEIGDGTLTEVKHVLLEYEVSCLDINPIGDNPNYSQLAAVGMWTDISVRIFVLPDLTLITKEELGGEIIPRSVLLCAFEGISYLLCALGDGHLLNFQLDTSCGKLRDRKKVSLGTRPITLRTFSSKSATHVFAASDRPAVIYSNNKKLLYSNVNLKEVSHMCPFNSAAFPDSLAIAREGELTIGTIDDIQKLHIRTIPIGEHARRICHQEQTRTFAISCLRNEPSAEESESHFVRLLDAQSFEFLSSYPLDAFECGCSILSCSFTDDKNVYYCVGTAYVLPEENEPTKGRILVFIVEEGRLQLITEKETKGAVYSLNAFNGKLLASINQKIQLYKWMLRDDGTRELQSECGHHGHILALYVQTRGDFIAVGDLMKSISLLIYKHEEGAIEERARDYNANWMTAVEILNDDIYLGTDNCFNIFTVKKNNEGATDEERARMEVVGEYHIGEFVNRFRHGSLVMKLPDSDIGQIPTVIFGTVSGMIGVIASLPQEQYAFLEKLQTSLRKVIKGVGGLSHEQWRSFNNEKRTAEAKGYLDGDLIESFLDLSRGKMEEISKGMDVQVEELCKRVEELTRLH
notes: DDB1B, Arabidopsis; amplified with DDB1B-EcoRI-F/DDB1B-SalI-R2 from pFGC5941-DDB1B-RFP and moved into pColdI behind mCherry; source: E. coli BL21 (DE3) (pColdI-mCherry-DDB1B), purified (Ni-NTA); not shown: mCherry, N-terminal, kept
For B2, the binding result is given as “binds”.
